# Measured values: US20200207859A1 (priority 2017, published 2020)
# B1: Conjugate A: anti-CD74 IgG with pAMF at heavy chain EU position 404 conjugated to DBCO-PEG4-maytansine (conjugate)
# VH: QVQLVESGGGVVQPGRSLRLSCAASGFNFSDYGMHWVRQAPGKGLEWVAVIWYDGSISYYADSVKGRFTISRDNSKNTLYLQMNSLRAEDTAVYYCARGGTVEHGAVYGTDVWGQGTTVTVSS
# VL: DIQMTQSPSSVSASVGDRVTITCRASQGIGSWLAWYQQKPGKAPKLLIYAADRLQSGVPSRFSGSGSGTDFTLTISSLQPEDFATYYCQQYHTYPLTFGGGTKVEIK
# modifications: non-natural residues
# Legend:
# Assay type in all cases: cell-based
# [1] = system: Jurkat T leukemia cells; test: T lymphoma cell line cell killing assay; parameters: key to Cell killing Span: NC = Not Calculable; NK = No Killing; conditions: 120 hours
# Procedure: (§1) A total of 12500 cells in a volume of 25 μL were seeded in a 384-well flat bottom white polystyrene plate the day before the assay. […] Filter-sterilized compounds were serial diluted in culture medium and 25 μL of the compounds were added into treatment wells in quadruplicates. Plates were cultured at 37° C. in a CO2 incubator for 120 hours. For cell viability measurement, 30 μL of Cell Titer-Glo® reagent (Promega Corp.; Madison, Wis.) was added into each well, and plates were processed per product instructions. Relative luminescence was measured on an ENVISION® plate reader (Perkin-Elmer; Waltham, Mass.). Relative luminescence readings were converted to percent (%) viability using untreated cells as controls. Data was fitted with non-linear regression analysis, using log(inhibitor) vs. response, variable slope, 4-parameter fit equation using GraphPad Prism (GraphPad v 5.00, Software; San Diego, Calif.). Data was expressed as percent (%) relative cell viability (average of the quadruplicates) vs. dose of compounds in units of nanomolar (nM). Cell killing EC50 values and span were calculated by Prism in order to evaluate the potency of each compound on each cell line.
# [2] = system: MJ T lymphoma cells; test: T lymphoma cell line cell killing assay; parameters: key to Cell killing Span: NC = Not Calculable; NK = No Killing; conditions: 120 hours
# Procedure: as §1
# [3] = system: My-La T lymphoma cells; test: T lymphoma cell line cell killing assay; conditions: 120 hours
# Procedure: as §1
# [4] = system: HuT-78 T lymphoma cells; test: T lymphoma cell line cell killing assay; conditions: HuT-78, 120 hours
# Procedure: as §1
# [5] = system: HH T lymphoma cells; test: T lymphoma cell line cell killing assay; conditions: 120 hours
# Procedure: as §1
# [6] = system: OPM-2 (MM); test: Cell killing assay (cell proliferation, Cell Titer-Glo); parameters: key to Cell Killing Activity Span: NK = no killing; NB = no binding; conditions: 72 hrs
# Procedure: (§2) Cytotoxicity effects of the free drug linkers and conjugates were measured with a cell proliferation assay. A total of 12500 cells in a volume of 25 μl were seeded in a 384-well flat bottom white polystyrene plate on the day of assay. Free drug-linkers and conjugates were formulated at 2× starting concentration (1000 nM for free drug linkers and 100 nM for ADCs) in RPMI medium and filtered through MultiScreen HTS 96-Well Filter Plates (Millipore). Filter sterilized samples were serial diluted (1:3) under sterile conditions and added into treatment wells. Plates were cultured at 37° C. in a CO2 incubator for 72 hrs. For cell viability measurement, 30 μl of Cell Titer-Glo® reagent (Promega Corp.) was added into each well, and plates processed as per product instructions. Relative luminescence was measured on an ENVISION® plate reader (Perkin-Elmer; Waltham, Mass.). Relative luminescence readings were converted to % viability using untreated cells as controls. Data was fitted with non-linear regression analysis, using log(inhibitor) vs. response, variable slope, 4 parameter fit equation using GraphPad Prism. Data was expressed as % relative cell viability vs. dose of free drug-linker or conjugate in nM.
# [7] = system: K562 (CML); test: as above; parameters: key to Cell Killing Activity Span: NK = no killing; NB = no binding; conditions: 72 hrs
# Procedure: as §2
# [8] = system: RPMI-8226 (MM); test: as above; parameters: key to Cell Killing Activity Span: NK = no killing; NB = no binding; conditions: 72 hrs
# Procedure: as §2
molecule,measurement,setting,value
B1,Cell killing Span,[1],NK
same,EC50,[1],> 50 nM
same,cell killing activity (in words),[1],No cell killing was observed
same,Cell killing Span,[2],NC
same,cell killing activity (in words),[2],less potent cell killing
same,Cell killing Span,[3],73%
same,EC50,[3],0.54 nM
same,cell killing activity (in words),[3],potent cell killing activity
same,Cell killing Span,[4],72%
same,EC50,[4],0.59 nM
same,cell killing activity (in words),[4],potent cell killing activity
same,Cell killing Span,[5],77%
same,EC50,[5],0.22 nM
same,cell killing activity (in words),[5],potent cell killing activity
same,Cell Killing Activity Span,[6],NK
same,IC50,[6],> 50 nM
same,Cell Killing Activity Span,[7],NK
same,IC50,[7],> 50 nM
same,Cell Killing Activity Span,[8],NK
same,IC50,[8],> 50 nM
